# Laboratory results taken from US20130209489A1 (Amgen, published 2013).
# Positions count from the first letter of the chain named.
# B1: anti-myostatin antibody 12A5-1 (antibody, V domains shown)
# VH: EVQLVESGGGLVQPGGSLRLSCAASGFTFSNYWMNWVRQAPGKGLEWVAQIRLKSDNYATHYAESVKGRFTISRDNAKNSLYLQMNSLRAEDTAVYYCARGLDYWGQGTTVTVSS
# VL: DIQMTQSPSSLSASVGDRVTITCKASQDINKYVAWYQQKPGKAPKLLIYYTSTLQPGVPSRFSGSGSGTDFTFTISSLQPEDIATYYCLQYDNLLYTFGQGTKLEIK
# B2: anti-myostatin antibody 12A5-3 (antibody, V domains shown)
# VH: B1 VH with M34C, A99T, R100E
# VL: B1 VL with T53F
# B3: anti-myostatin antibody 12A5-6 (antibody, V domains shown)
# VH: B1 VH with N31R, A99T, R100E
# VL: B1 VL with T53F, N93A
# B4: anti-myostatin antibody 12A5-8 (antibody, V domains shown)
# VH: B1 VH with S30R, M34C, A99T, R100E
# VL: B1 VL with S52K
# B5: anti-myostatin antibody 12A5-9 (antibody, V domains shown)
# VH: B1 VH with S30R, M34C, A99T, R100E
# VL: B1 VL with S52R
# B6: anti-myostatin antibody 12A5-10 (antibody, V domains shown)
# VH: B1 VH with S30R, M34C, A99T, R100E
# VL: B1 VL with L94K
# B7: anti-myostatin antibody 12A5-12 (antibody, V domains shown)
# VH: B1 VH with M34L, A99T, R100E
# VL: B1 VL with T53W
# B8: anti-myostatin antibody 12A5-18 (antibody, V domains shown)
# VH: B1 VH with S30R, M34C, A99T, R100E
# VL: B1 VL with T53H
# Molecular target: mature human myostatin (human, UniProt O14793 267-375)
# Assay: cell-based or functional assay
row,Binder,"IC50 (nM), C2C12/pMARE luciferase reporter cell myostatin activity assay"
1,B1,473 nM
2,B2,2.53 nM
3,B3,1.64 nM
4,B4,4.96 nM
5,B5,3.98 nM
6,B6,3.08 nM
7,B7,1.45 nM
8,B8,1.45 nM
